One block for each molecule: values may come before it.
Legend:
[1] = tested on: RNA polymerase holoenzyme Esigma38 (Escherichia coli); experiment: EMSA; details: 1 uM Rsd; binding buffer, salt, pH and temperature not given in the material; heparin competitor in NAP footprints
[2] = molecular target: T1, RNA polymerase sigma factor σ^70 (E. coli, UniProt P00579 1-613); experiment: cross-linking; 3 µg Rsd with 3 µg σ^70, σ^38 or Rsd (or each protein alone), 30 minutes in 15 µl 50 mM HEPES pH 7.4, 5% glycerol, 0.1 mM EDTA, 0.1 mM DTT; 0.02% glutaraldehyde, room temperature 30 minutes; SDS gel, Coomassie staining; details: both partners purified
T1 construct: RNA polymerase sigma factor σ^70 (RpoD), E. coli; also called free σ^70; sigma D

[3] = molecular target: the molecule itself; experiment: as above
[4] = molecular target: T1, RNA polymerase sigma factor σ^70; experiment: pull-down; biotinylated Rsd incubated with the protein of interest (molar ratios 1:1 or 1:3) for 1 hour in TGED buffer on ice, held on Streptavidine MicroBeads column, four washes, elution with SDS buffer; SDS gel, Coomassie and silver staining; details: both partners purified
[5] = molecular target: T2, RNA polymerase sigma factor σ^38 (E. coli, UniProt P13445 1-330); experiment: as above; details: both partners purified
T2 construct: stationary phase-specific sigma factor σ^38 (RpoS), E. coli; also called σ^s; RpoS
T2 sequence (P13445 whole entry): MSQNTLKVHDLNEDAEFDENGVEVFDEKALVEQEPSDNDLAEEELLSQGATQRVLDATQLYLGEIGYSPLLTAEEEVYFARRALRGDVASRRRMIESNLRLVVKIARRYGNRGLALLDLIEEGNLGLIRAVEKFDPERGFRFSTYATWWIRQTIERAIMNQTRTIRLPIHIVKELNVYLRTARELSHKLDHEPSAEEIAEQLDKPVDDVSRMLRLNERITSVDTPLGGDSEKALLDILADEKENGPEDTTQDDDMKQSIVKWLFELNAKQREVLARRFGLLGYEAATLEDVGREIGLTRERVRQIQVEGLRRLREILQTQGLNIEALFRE

T1 sequence (P00579 whole entry): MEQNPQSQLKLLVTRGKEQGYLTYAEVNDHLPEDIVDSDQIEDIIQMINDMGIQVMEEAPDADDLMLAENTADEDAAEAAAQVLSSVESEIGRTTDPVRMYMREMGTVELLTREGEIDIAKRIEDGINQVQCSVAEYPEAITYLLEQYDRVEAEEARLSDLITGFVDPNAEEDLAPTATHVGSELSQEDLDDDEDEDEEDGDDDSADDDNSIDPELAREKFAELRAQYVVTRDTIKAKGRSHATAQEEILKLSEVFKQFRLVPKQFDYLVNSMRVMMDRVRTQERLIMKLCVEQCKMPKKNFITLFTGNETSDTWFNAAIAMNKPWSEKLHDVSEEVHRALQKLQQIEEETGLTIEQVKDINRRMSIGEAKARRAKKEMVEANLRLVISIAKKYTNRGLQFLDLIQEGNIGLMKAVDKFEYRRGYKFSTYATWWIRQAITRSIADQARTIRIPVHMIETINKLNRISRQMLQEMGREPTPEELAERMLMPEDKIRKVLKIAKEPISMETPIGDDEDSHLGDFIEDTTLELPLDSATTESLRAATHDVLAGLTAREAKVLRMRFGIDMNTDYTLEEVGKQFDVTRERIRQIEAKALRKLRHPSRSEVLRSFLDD

Molecule: fic promoter fragment
binding signal (% of complex remaining) [1]: 50

binding result [2]: binds
B1: Rsd (regulator of sigma D), native protein (natural protein, E. coli, UniProt P0AFX4 1-158, looked up)
chain: MLNQLDNLTERVRGSNKLVDRWLHVRKHLLVAYYNLVGIKPGKESYMRLNEKALDDFCQSLVDYLSAGHFSIYERILHKLEGNGQLARAAKIWPQLEANTQQIMDYYDSSLETAIDHDNYLEFQQVLSDIGEALEARFVLEDKLILLVLDAARVKHPA
notes: Rsd (regulator of sigma D), E. coli; No tag is mentioned; also called native Rsd; anti-sigma factor Rsd; source: E. coli BL21DE3pLysS/pUC18-Rsd, purified (DEAE-Sephadex A25, P11-phosphocellulose, NH4SO4 precipitation)
stoichiometry N [3]: 2

binding result [4]: binds
binding result [5]: binds
B2: Biotinylated Rsd (natural protein, E. coli, UniProt P0AFX4 1-158, looked up)
chain: MLNQLDNLTERVRGSNKLVDRWLHVRKHLLVAYYNLVGIKPGKESYMRLNEKALDDFCQSLVDYLSAGHFSIYERILHKLEGNGQLARAAKIWPQLEANTQQIMDYYDSSLETAIDHDNYLEFQQVLSDIGEALEARFVLEDKLILLVLDAARVKHPA
modifications: biotin (9 fold excess of Biotinyl-N-hydroxy-succinimide; modified residues not stated)
notes: Rsd (regulator of sigma D), E. coli; Held on Streptavidine MicroBeads through the biotin; also called Biotinylated-Rsd protein; immobilized Rsd; source: E. coli BL21DE3pLysS/pUC18-Rsd, purified, then biotinylated with Biotinyl-N-hydroxy-succinimide

Reference: article PMC3089606, “The E. coli Anti-Sigma Factor Rsd: Studies on the Specificity and Regulation of Its Expression” (PLoS ONE, 2011)
